Here are results for 167 variants from the RNAGym collection of RNA variant scans (doi:10.7554/elife.90254).

B1: OR4K15 (parent)
chain: GUUAACGGUCAUAGGCCAUGGAAACUAGGAGCACCAUUUCGCUGCCAGUGAAGAAAUGAACAAAGAAAAUCUGGGCCAGGCAGGCAUCAAAAGAAAUAGUCUUGCGCUCAACCAGAAAGUCUGUAAUCAUUUUAAGGGUA

In this series the parent is B1. Nature of the series: self-cleavage, relative activity (ratio to wild type); higher = more cleavage; in vitro, sequencing; the parent is a self-cleaving ribozyme.
Take U103G U131C: the self-cleavage worked out at 0.01.

With U103A U124C, the self-cleavage was determined as 0.07.

U102C A110G: the self-cleavage stood at 0.15.

Consider U102C A110C, for which the self-cleavage came out at 0.4.

With C113U U130C, the self-cleavage was found to be 0.04.

As for G106U U122C, the self-cleavage was found to be 0.

A114C A126G: the self-cleavage was 0.02.

In the case of U108C U139C, the self-cleavage was 0.01.

Consider G104A U132C, for which the self-cleavage amounted to 0.04.

In the case of U103C A117C, the self-cleavage is 0.29.

With U103C A117G, the self-cleavage was found to be 0.71.

Regarding U102A U103A, the self-cleavage was determined as 0.12.

Take C105A U131C: the self-cleavage worked out at 0.05.

Take G106A A125U: the self-cleavage came to 0.05.

As to A111G U122A, the self-cleavage was 0.01.

Consider A111G U122G, for which the self-cleavage is 0.01.

Turning to A110U U132C, the self-cleavage is 0.71.

A110U U132A: the self-cleavage turned out to be 1.8.

In the case of G104U A140G, the self-cleavage came to 0.

Take C107U U130C: the self-cleavage worked out at 0.

In the case of A114U U131C, the self-cleavage came out at 0.02.

Take U102C U130A: the self-cleavage came out at 1.61.

With A110G U132C, the self-cleavage was found to be 0.07.

Turning to U102A U127C, the self-cleavage turned out to be 0.74.

U103A A126G: the self-cleavage was found to be 0.34.

As to C101U A118G, the self-cleavage was found to be 0.02.

Consider U108C U131A, for which the self-cleavage came out at 0.02.

As to C109U U133C, the self-cleavage came out at 0.37.

Turning to A111G G137A, the self-cleavage is 0.02.

G106U: the self-cleavage turned out to be 0.01.

With G106A, the self-cleavage was determined as 0.01.

In the case of G106C, the self-cleavage came out at 0.01.

Consider A114C U131C, for which the self-cleavage worked out at 0.02.

Regarding A114U U120C, the self-cleavage turned out to be 0.03.

On to A114U U120A, for which the self-cleavage was found to be 0.05.

As to C107A A111G, the self-cleavage was 0.02.

Turning to A114U A116U, the self-cleavage turned out to be 0.03.

Turning to A111G A118U, the self-cleavage is 0.

Turning to A111G A118G, the self-cleavage turned out to be 0.01.

As for U108A A125G, the self-cleavage stood at 0.

On to A114G G138A, for which the self-cleavage came out at 0.76.

On to A111G A117G, for which the self-cleavage was found to be 0.01.

As for C112U U122C, the self-cleavage is 0.01.

For U103A A111G, the self-cleavage came to 0.01.

Consider U108C A114G, for which the self-cleavage is 0.01.

Take U108C A114U: the self-cleavage was determined as 0.01.

A114G A134U: the self-cleavage is 0.23.

C113U U131C: the self-cleavage stood at 0.

As for C109A A117G, the self-cleavage was 0.59.

Turning to A111U U122C, the self-cleavage stood at 0.08.

Regarding A111U U120A, the self-cleavage stood at 0.08.

As to U108A A114G, the self-cleavage amounted to 0.02.

For the variant A110G U133C, the self-cleavage is 0.25.

For the variant A110G, the self-cleavage turned out to be 0.13.

Consider A110U, for which the self-cleavage is 1.34.

Take A110C: the self-cleavage was 0.31.

Take A111G U120A: the self-cleavage was 0.

As for U108C A125G, the self-cleavage came out at 0.

Take A116C A129G: the self-cleavage amounted to 0.05.

In the case of U103A A118C, the self-cleavage came out at 0.53.

With U108A U127A, the self-cleavage came to 0.03.

With U103A A134G, the self-cleavage is 0.27.

On to U103A A134U, for which the self-cleavage is 0.87.

Turning to A114U U127A, the self-cleavage is 0.03.

For the variant A110C U122A, the self-cleavage came out at 0.24.

As to U103A A135G, the self-cleavage was 0.73.

Consider U103C G104A, for which the self-cleavage came to 0.02.

Consider U108C U127C, for which the self-cleavage is 0.01.

For the variant U108C U127A, the self-cleavage is 0.01.

For the variant U100G, the self-cleavage turned out to be 1.24.

On to U102C U133G, for which the self-cleavage stood at 2.02.

As for U102C U133C, the self-cleavage turned out to be 2.27.

With C109A A114G, the self-cleavage worked out at 0.11.

Regarding U108A A116U, the self-cleavage is 0.02.

With G106A G136U, the self-cleavage was determined as 0.04.

For U103A U131G, the self-cleavage was 0.22.

Consider C109U C128A, for which the self-cleavage was determined as 0.12.

In the case of C109A U127C, the self-cleavage worked out at 0.17.

For U103C U130C, the self-cleavage was 0.57.

For the variant U108A G123A, the self-cleavage came to 0.01.

Turning to U103C U122C, the self-cleavage was 0.55.

For A114C U122C, the self-cleavage worked out at 0.01.

Turning to C112U U132C, the self-cleavage came to 0.01.

Take A110U U127C: the self-cleavage was determined as 0.44.

Take U102C U108A: the self-cleavage was found to be 0.01.

For U102C U108C, the self-cleavage turned out to be 0.01.

On to C112A A129G, for which the self-cleavage was 0.01.

As for C112A U127C, the self-cleavage amounted to 0.03.

With G106U U108A, the self-cleavage amounted to 0.01.

For the variant C107U A118G, the self-cleavage stood at 0.

On to C107U A118U, for which the self-cleavage was 0.01.

Take A110G U131C: the self-cleavage is 0.08.

As for C107A U122C, the self-cleavage is 0.01.

Turning to A110G A135U, the self-cleavage is 0.12.

Take U102G A126G: the self-cleavage came to 0.69.

As for U102C A134G, the self-cleavage was determined as 1.14.

For C107G U108A, the self-cleavage was determined as 0.01.

C113A U130C: the self-cleavage turned out to be 0.

In the case of C113U A129G, the self-cleavage stood at 0.01.

For U102C A135G, the self-cleavage was determined as 1.6.

Take U103G G119A: the self-cleavage is 0.01.

Regarding U102C A111G, the self-cleavage is 0.01.

For U103A U108A, the self-cleavage is 0.02.

A111G U130C: the self-cleavage was determined as 0.01.

As for A111G U130A, the self-cleavage was determined as 0.02.

Turning to A111G A126G, the self-cleavage was determined as 0.01.

Turning to U108A A118G, the self-cleavage was determined as 0.

Take G115U A129U: the self-cleavage came out at 0.03.

Take C105U U132C: the self-cleavage turned out to be 0.16.

For the variant U108A A129G, the self-cleavage is 0.

U103C A135U: the self-cleavage turned out to be 1.34.

Regarding G115A C121A, the self-cleavage is 0.33.

As to A111G A129G, the self-cleavage worked out at 0.01.

For U103C A129U, the self-cleavage is 0.29.

Consider U102A, for which the self-cleavage amounted to 0.74.

As to U102C, the self-cleavage amounted to 1.82.

Take U102G: the self-cleavage amounted to 0.58.

In the case of C107G A118G, the self-cleavage came out at 0.01.

In the case of U102C A129G, the self-cleavage worked out at 1.74.

In the case of U103C U124C, the self-cleavage stood at 0.96.

As for U108C C128G, the self-cleavage came out at 0.01.

Consider A111G A114C, for which the self-cleavage was determined as 0.

As to A111G A114U, the self-cleavage worked out at 0.

Take A111G A114G: the self-cleavage stood at 0.02.

On to G104A A116U, for which the self-cleavage stood at 0.

As for C105A U124A, the self-cleavage stood at 0.02.

For the variant G106A U127A, the self-cleavage stood at 0.01.

On to G106C A118G, for which the self-cleavage was 0.

As for C107U U108C, the self-cleavage is 0.02.

Take U108A U124C: the self-cleavage turned out to be 0.01.

U102A A114G: the self-cleavage was 0.43.

In the case of U102A G119A, the self-cleavage worked out at 1.23.

For the variant G115A U124C, the self-cleavage came out at 0.05.

In the case of C112G, the self-cleavage was 0.02.

As to C112A, the self-cleavage was 0.01.

For C112U, the self-cleavage was determined as 0.02.

On to U102C A126G, for which the self-cleavage worked out at 1.89.

As for U102C A126U, the self-cleavage was 1.39.

G106U A118G: the self-cleavage is 0.02.

Take A114G A140G: the self-cleavage worked out at 0.26.

In the case of A114G A140U, the self-cleavage was 0.41.

Regarding A114C A129G, the self-cleavage was found to be 0.01.

As to A110G U127A, the self-cleavage came out at 0.15.

With U103C U127C, the self-cleavage amounted to 0.26.

As for U103C U127A, the self-cleavage is 1.27.

On to U102A U122A, for which the self-cleavage stood at 1.28.

Regarding U102A U124C, the self-cleavage was found to be 0.88.

Take C109A U122C: the self-cleavage was found to be 0.28.

With A111G A116U, the self-cleavage worked out at 0.04.

For the variant A111G A116G, the self-cleavage was determined as 0.01.

On to C105G A117G, for which the self-cleavage was 0.02.

On to U108A A135U, for which the self-cleavage came to 0.02.

On to U103A A140U, for which the self-cleavage amounted to 0.46.

For the variant U108C A116U, the self-cleavage was found to be 0.

Take U108C A116G: the self-cleavage came to 0.01.

Regarding A114U U139A, the self-cleavage was 0.07.

Take U108C G115A: the self-cleavage is 0.

As to U100C U139C, the self-cleavage came out at 2.29.

Take U108A U130G: the self-cleavage amounted to 0.

With U102C A116U, the self-cleavage was found to be 0.23.

Consider U102C A116G, for which the self-cleavage stood at 0.7.

With U108G U139C, the self-cleavage came to 0.

Consider A114U A125U, for which the self-cleavage was 0.08.

As for G104A A126U, the self-cleavage was 0.09.

For G104A A126G, the self-cleavage is 0.02.

Take A111C U131C: the self-cleavage turned out to be 0.

For U103C A125U, the self-cleavage came out at 1.45.
